Measurements from patent publication US8361965B2, “Recombinant chimeric protein of neutrophil inhibitory factor and hirugen, and pharmaceutical composition thereof” (Lunan Pharmaceutical Group Corporation, priority 2008, dated 2013).

Columns and labels:
[1] = test system: human peripheral blood leukocyte; test: inhibition of H2O2 release from human peripheral blood leukocyte; type: cell-based
Procedure: 10 ml venous blood was taken from healthy people, and heparin sodium was added for anticoagulation. 10 ml HAS buffer (comprising RPMI 1640+10 mM HEPES+1.2 mM CaCl2+1.0 mM MgCl2+1% HAS, pH 7.4) was added into the blood and mixed. Leukocyte separation solution (Sangon) was charged into a sterile centrifuge tube, and whole blood mixture of the same volume was added slowly, and then centrifuged at 2000 rpm for 15 min. Leukocyte solution was taken from the interface and appropriate 1640 culture medium was added, centrifuged for 10 min, and washed twice. The supernatant was discarded, and appropriate HAS Buffer was added for resuspending the precipitate so as to prepare leukocyte suspension. The cell density was counted and adjusted to 4×10^7/ml. The product was separated at 37° C. and used within an hour.
Coating the 24-well plate with Hank's solution comprising 50% fetal bovine serum and culturing at 37 for 60 min; washing the plate with 0.15 M NaCl twice; diluting the cells to 6.0×10^6/ml with the buffer solution for release assay, adding cells, and culturing at 37 for 5 min; adding FMLP to the final concentration of 250 nM; adding TNHH samples at different concentrations and culturing at 37 for 60 min; pipetting the cell suspension, centrifuging at 8000×g for 3 min, and collecting the supernatant. Adding the supernatant into multiple-wells of a 96-well ELISA plate, adding 1 N NaOH (25 μl) for stopping the reaction, and determining the OD at 610 nm wavelength. Calculating the IC50 value of TNHH for inhibiting H2O2 release, and using the standard H2O2 solution as a control.

blood coagulation system = test: effects on blood coagulation system of New Zealand rabbits in vitro (APTT, PT, TT); type: biochemical, New Zealand rabbit; design: PT: unit not given beside the values; APTT / TT: unit not given here
Procedure: Medicaments were diluted to the following concentrations for use: TNHH: 3.0 mg/ml; 1.0 mg/ml; 333 μg/ml; bivalrudin: 600 μg/ml; 200 μg/ml; 67 μg/ml; Hirudin: 660 μg/ml; 220 μg/ml; 73 μg/ml.
The blood was sampled from six New Zealand rabbits (10×1.8 ml for each one) from marginal ear vein and added into 10 anticoagulation tubes, respectively. 3.2% sodium citrate (9:1) was added for anticoagulation.
20 μl anticoagulated blood was taken from each tube, followed by the addition of 20 μl above diluted medicaments for each tube. 20 μl physiological saline was added into the control tube. Samples were mixed thoroughly and centrifuged at 3000 rpm/min for 3 min, and plasma was send to Department of Clinical Laboratory, Southwest Hospital for determining blood coagulation indexes (APTT, TT and PT) with a full automatic coagulation analyzer and the difference before and after administration was obtained by comparison.

[2] = TNHH 3.33 μg/ml in rabbit blood
[3] = TNHH 10.00 μg/ml in rabbit blood
[4] = TNHH 30.00 μg/ml in rabbit blood

B1: TNHH: recombinant chimeric protein of neutrophil inhibitory factor and hirugen, Met-NIF-GGGGG-FPRPGSGG-Hirugen (SEQ ID NO: 3), expressed in E. coli (protein)
chain: MNEHNLRCPQNGTEMPGFNDSIRLQFLAMHNGYRSKLALGHISITEESESDDDDDFGFLPDFAPRASKMRYLEYDCEAEKSAYMSARNCSDSSSPPEGYDENKYIFENSNNISEAALKAMISWAKEAFNLNKTKEGEGVLYRSNHDISNFANLAWDAREKFGCAVVNCPLGEIDDETNHDGETYATTIHVVCHYPKINKTEGQPIYKVGTPCDDCSEYTKKADNTTSADPVCIPDDGVCFIGSKADYDSKEFYRFRELGGGGGFPRPGSGGNGDFEEIPEEYL
modifications: N-terminal Met
[1]; FMLP 250 nM, 60 min
  IC50 value for inhibiting H2O2 release: 8.5 µg/mL
[1]; TNHH 0.781 μg/ml
  Inhibition ratio (%): −1.3%
[1]; TNHH 1.562 μg/ml
  Inhibition ratio (%): 6.55%
[1]; TNHH 3.125 μg/ml
  Inhibition ratio (%): 22.76%
[1]; TNHH 6.25 μg/ml
  Inhibition ratio (%): 40.17%
[1]; TNHH 12.5 μg/ml
  Inhibition ratio (%): 50.82%
[1]; TNHH 25 μg/ml
  Inhibition ratio (%): 61.45%
[1]; TNHH 50 μg/ml
  Inhibition ratio (%): 79.91%
[1]; TNHH 100 μg/ml
  Inhibition ratio (%): 81.99%
[1]; concentration not given
  inhibition ratio compared with the control group: about 70%
Blood coagulation system; [2]
  APTT: 33.73 ± 6.35
  PT: 7.08 ± 0.28
  TT: 17.13 ± 1.46
Blood coagulation system; [3]
  APTT: 31.87 ± 4.46
  PT: 7.15 ± 0.24
  TT: 20.43 ± 1.59
Blood coagulation system; [4]
  APTT: 38.08 ± 5.53
  PT: 7.27 ± 0.38
  TT: 30.00 ± 4.81
